US9023987B2, “Cell-permeable peptide” (Seoul National University R&DB Foundation, priority 2010, dated 2015)

Columns and labels:
[1] = system: human mesenchymal stem cells (hMSC); assay: Cytotoxicity by MTT assay; type: cell-based; design: dose or concentration left out as unconfirmed; conditions: 24, 48, and 72 hours, FIG. 5
Experimental: In order to confirm whether or not cell proliferation is affected by potential toxicity when the cell permeable peptide-bone differentiation inducing sequence conjugate and control domains are cultured with hMSC, a 3-[4,5-dimethylthiazo-2-yl]-2,5-diphenyl tetrazolium bromide thiazolyl blue (MTT) assay method was used.
The MTT assay method is a method for measuring cytotoxicity by measuring absorbance of formazan produced as mitochondrial dehydrogenases in alive and metabolically active cells reduces MTT to indicate the absorbance as a percentage based on the control group. In this case, the measured absorbance reflects a concentration of the alive and metabolically active cells. 2,3,5-triphenyl tetrazolium chloride (TTC) is reduced to formazan in live cells. The formazan is insoluble purple color, and a respiration rate may be measured by a degree of color. The absorbance of formazan is maximal at 540 nm, and the absorbance measured at this wavelength reflects the concentration of the alive and metabolically active cells. Since a linear relationship between the absorbance and the concentration of the cells is not established when a concentration of cells in well to be measured is excessively high or low, a process of determining an optimal concentration of the cells was performed. […]

[2] = molecular target: T1, Smurf1 (Homo sapiens, UniProt Q9HCE7); assay: Immuno-precipitation and western blot of Smad1/5/8 ubiquitination in hMSC; type: cell-based; conditions: hMSC pre-treated with MG132, 10 mM peptide, 1 hour 30 minutes; compared with MG132 only; FIG. 2B
T1 construct: endogenous in cells; host or cells: human mesenchymal stem cells (hMSC)
Text: In order to confirm presence or absence of the active site of the cell permeable peptide-bone differentiation inducing sequence conjugate synthesized by the method in Example 1 for binding to Smurf1, an immuno-precipitation method and a western blot assay method were used. The present experimental method is applied in order to confirm that the cell permeable peptide-bone differentiation inducing sequence conjugate synthesized by the method in Example 1 may suppress a bioactivity of Smurf1 decomposing Smd1/5/8 as one of the E3 ligases playing a role in ubiquitin ligation.
1×10^6 human mesenchymal stem cells (hMSC) used as a model cell in the present experiment were plated in each dish and then cultured in a general medium for 20 hours (overnight incubation). Then the cells was cultured in an hMSC basal medium (MSCBM™, LONZA, USA) containing 0.5% fetal bovine serum (FBS, GIBCO, USA) for 20 hours (overnight starvation). After overnight starvation in 0.5% MSCBM™, […] MG132 (MG132; proteasome inhibitor, Merck, USA) was added to the same medium to allow the cells to be pre-treated for 2 hours. Thereafter, the cell permeable peptide-bone differentiation inducing sequence conjugate synthesized by the method in Example 1 and peptides of Comparative Examples 1 and 2 were injected into each dish at a concentration of […], respectively, and cultured for 1 hour 30 minutes. […]

T1 sequence (Q9HCE7 whole entry): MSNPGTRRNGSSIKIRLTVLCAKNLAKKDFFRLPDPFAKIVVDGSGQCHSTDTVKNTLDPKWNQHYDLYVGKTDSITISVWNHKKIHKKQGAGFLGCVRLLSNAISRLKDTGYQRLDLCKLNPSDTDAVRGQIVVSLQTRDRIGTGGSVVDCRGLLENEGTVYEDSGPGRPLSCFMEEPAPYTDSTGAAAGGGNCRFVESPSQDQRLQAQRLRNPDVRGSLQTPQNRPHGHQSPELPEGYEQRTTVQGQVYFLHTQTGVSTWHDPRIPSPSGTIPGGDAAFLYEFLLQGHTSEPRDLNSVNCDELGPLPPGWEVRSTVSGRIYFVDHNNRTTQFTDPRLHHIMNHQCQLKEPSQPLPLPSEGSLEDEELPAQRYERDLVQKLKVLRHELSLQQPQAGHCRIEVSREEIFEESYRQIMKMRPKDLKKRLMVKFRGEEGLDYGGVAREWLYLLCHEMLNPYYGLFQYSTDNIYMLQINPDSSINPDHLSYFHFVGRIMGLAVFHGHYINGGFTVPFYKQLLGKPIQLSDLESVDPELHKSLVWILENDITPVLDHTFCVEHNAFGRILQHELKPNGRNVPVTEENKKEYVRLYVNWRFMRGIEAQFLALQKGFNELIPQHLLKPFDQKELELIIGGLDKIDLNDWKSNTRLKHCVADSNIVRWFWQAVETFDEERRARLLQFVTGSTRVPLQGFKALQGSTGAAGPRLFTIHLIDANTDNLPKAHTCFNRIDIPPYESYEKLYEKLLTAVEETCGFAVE

## NH2-GAPPPADSAP-SSRKKNPNCRRH-C-COONH2 (H-GAPPPADSAPSSRKKNPNCRRHC-NH2; cysteine pairing not given here) [Example 1]
[1]
  cytotoxicity (MTT, cell proliferation ability compared with PBS): did not exhibit cytotoxicity
[2]
  ubiquitination of Smad1/5/8 (ubiquitin antibody after Smad1/5/8 immuno-precipitation): ubiquitination of Smad1/5/8 was suppressed
